Experimental data from patent US20260216242A1 (ALMAC DISCOVERY, published 2026).
Positions count from the first letter of the chain named. In names and notes the source's numbering stands.

T1: human ALPI on CHO cells (human, UniProt P09923 20-503)
T1 construct: whole, on cells; also called CHO-ALPI
T1 sequence (looked up): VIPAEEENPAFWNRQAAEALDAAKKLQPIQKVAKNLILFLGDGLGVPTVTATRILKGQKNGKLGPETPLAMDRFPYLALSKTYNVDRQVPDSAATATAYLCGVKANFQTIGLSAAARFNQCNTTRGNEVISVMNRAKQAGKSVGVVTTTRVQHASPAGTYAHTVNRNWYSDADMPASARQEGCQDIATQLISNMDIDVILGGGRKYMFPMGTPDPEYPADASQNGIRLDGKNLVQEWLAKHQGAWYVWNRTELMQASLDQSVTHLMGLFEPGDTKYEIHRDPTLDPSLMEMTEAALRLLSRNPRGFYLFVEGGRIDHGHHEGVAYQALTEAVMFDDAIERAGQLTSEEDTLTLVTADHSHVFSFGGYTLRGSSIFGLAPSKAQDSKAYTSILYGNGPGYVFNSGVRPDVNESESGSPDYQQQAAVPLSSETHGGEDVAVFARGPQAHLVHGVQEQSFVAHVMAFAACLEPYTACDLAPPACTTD

T2: human ALPL on CHO cells (human, UniProt P05186 18-501)
T2 construct: whole, on cells; also called CHO-ALPL
T2 sequence (looked up): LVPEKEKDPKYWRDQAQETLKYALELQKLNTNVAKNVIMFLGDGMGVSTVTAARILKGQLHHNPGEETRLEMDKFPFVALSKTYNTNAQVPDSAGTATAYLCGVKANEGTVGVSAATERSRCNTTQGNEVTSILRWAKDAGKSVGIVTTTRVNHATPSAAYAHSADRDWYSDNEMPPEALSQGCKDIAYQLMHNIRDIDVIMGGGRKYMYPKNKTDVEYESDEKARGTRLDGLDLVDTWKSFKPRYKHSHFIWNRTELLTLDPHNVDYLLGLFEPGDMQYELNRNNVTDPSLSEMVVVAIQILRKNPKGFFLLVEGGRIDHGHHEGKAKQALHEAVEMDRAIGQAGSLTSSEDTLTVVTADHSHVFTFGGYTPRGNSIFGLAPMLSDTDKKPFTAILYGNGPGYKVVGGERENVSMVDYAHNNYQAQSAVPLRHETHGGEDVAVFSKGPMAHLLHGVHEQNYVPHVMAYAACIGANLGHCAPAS

T3: Human ALPL (leucine zipper) (human)
T3 construct: Whole entry: fused with a cysteine stabilised leucine zipper and His tag; also called hALPL
T3 chain: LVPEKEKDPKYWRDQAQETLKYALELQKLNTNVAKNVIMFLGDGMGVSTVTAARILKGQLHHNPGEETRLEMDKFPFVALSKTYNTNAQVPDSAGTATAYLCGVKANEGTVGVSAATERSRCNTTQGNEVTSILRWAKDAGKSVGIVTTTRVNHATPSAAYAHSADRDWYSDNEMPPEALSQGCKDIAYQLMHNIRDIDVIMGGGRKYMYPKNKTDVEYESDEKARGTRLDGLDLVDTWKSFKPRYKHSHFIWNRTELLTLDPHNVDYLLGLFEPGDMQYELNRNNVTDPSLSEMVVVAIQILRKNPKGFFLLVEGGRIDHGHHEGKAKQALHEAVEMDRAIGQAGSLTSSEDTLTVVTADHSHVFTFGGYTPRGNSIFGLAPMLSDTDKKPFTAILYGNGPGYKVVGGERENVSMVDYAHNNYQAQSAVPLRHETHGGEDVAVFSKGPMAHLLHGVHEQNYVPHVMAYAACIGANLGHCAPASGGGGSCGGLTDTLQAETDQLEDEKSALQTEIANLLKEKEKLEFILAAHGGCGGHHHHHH

T4: Human ALPP (leucine zipper) (human)
T4 construct: Whole entry: ALPP fused with a cysteine stabilised leucine zipper and His tag; also called hALPP
T4 chain: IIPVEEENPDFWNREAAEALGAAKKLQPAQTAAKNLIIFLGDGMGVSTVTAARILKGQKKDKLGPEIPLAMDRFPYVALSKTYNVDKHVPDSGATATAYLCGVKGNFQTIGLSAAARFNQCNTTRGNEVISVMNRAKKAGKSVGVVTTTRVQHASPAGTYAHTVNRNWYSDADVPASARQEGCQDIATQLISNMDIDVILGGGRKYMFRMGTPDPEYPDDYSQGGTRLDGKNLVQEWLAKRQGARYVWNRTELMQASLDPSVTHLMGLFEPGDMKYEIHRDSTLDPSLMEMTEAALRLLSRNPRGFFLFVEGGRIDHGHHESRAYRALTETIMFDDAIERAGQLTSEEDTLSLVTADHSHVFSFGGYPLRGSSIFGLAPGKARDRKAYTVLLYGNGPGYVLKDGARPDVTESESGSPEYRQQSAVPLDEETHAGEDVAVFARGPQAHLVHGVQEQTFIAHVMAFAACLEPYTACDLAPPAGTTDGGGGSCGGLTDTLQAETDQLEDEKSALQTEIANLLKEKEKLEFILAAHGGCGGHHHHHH

T5: ALPI His homodimer (human, UniProt P09923 20-503)
T5 construct: Whole entry with His tag; used in ELISA and BLI; also called hALPI
T5 sequence: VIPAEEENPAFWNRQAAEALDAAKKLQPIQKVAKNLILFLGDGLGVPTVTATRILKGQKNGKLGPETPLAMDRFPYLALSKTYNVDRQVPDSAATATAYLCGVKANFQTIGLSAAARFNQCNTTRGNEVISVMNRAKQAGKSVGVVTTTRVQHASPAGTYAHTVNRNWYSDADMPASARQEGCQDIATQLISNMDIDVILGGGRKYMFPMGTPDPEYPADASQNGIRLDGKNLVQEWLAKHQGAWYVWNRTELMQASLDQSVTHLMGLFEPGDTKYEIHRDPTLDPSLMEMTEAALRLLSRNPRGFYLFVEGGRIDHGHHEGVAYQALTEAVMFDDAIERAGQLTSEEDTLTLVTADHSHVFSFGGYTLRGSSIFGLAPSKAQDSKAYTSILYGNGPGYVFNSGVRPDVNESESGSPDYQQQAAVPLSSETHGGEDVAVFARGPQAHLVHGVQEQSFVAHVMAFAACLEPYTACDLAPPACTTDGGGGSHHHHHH

B1: D10-E06 hFc-vcPAB-MMAE [G4S]3 (Fc fusion, DAR 4)
chain 1: QVQLVESGGGLVQPGGSLRLSCAASGSIFSVNTMGWYRQAPGKQRDLVAVATSGGTIHYADSVKGRFTISRDNAKNTVYLQMNSLKPEDTAVYYCNLVVPYGMIAGDHDYWGQGTKVTVSSGGGGSGGGGSGGGGSEPKSSDKTHTCPPCPAPELLGGPCVFLFPPKPKDTLMISRTPEVTCVVVDVSHEDPEVKFNWYVDGVEVHNAKTKPREEQYNSTYRVVSVLTVLHQDWLNGKEYKCKVSNKALPAPIEKTISKAKGQPREPQVYTLPPSRDELTKNQVSLYCLVKGFYPSDIAVEWESNGQPENNYKTTPPVLDSDGSFFLYSKLTVDKSRWQQGNVFSCSVMHEALHNHYTQKSLCLSPGK
chain 2: QVHLVESGGGLVQAGGSLRLSCAASRRSFSEYAMGWFRQAPGKEREFVAAIGWSGVIEYADSVKGRFTISRDNAKDTVYLQMNSLKPEDTAVYYCAAGLGIRVVSQTPAYWGQGTQVTVSSGGGGSGGGGSGGGGSEPKSSDKTHTCPPCPAPELLGGPCVFLFPPKPKDTLMISRTPEVTCVVVDVSHEDPEVKFNWYVDGVEVHNAKTKPREEQYNSTYRVVSVLTVLHQDWLNGKEYKCKVSNKALPAPIEKTISKAKGQPREPQVYTLPPSRDELTKNQVSLTCLVKGFYPSDIAVEWESNGQPENNYKTTPPVLDSDGSFFLTSKLTVDKSRWQQGNVFSCSVMHEALHNHYTQKSLCLSPGK
modifications: MC-vc-PAB-MMAE on Cys 239 and Cys 442 (EU numbering)
notes: Biparatopic drug conjugate, DAR 4; also called #634
B2: B09 (VHH, not shown: small tags and cut ends)
VHH: QVQLVESGGGSVQAGGSLRLSCAASGPSLSHYAMGWFRQAPGKEREFVAGISWGGGRTSYTDSVKGRFTISRDNAKNTVYLQMNNLKPEDTGVYYCAGRYGRGRNVEYEYDYWGQGTQVTVSS
B3: H09 (VHH, not shown: small tags and cut ends)
VHH: B2 VHH with A14T, H31N, S59N, T61L, V79M, N85S, G92A, N105D
B4: E12 (VHH, not shown: small tags and cut ends)
VHH: B2 VHH with L29I, H31N, Y32F, S59N, T61L, T78M, Y80H, N85S, G92T, N105D
B5: H10 (VHH, not shown: small tags and cut ends)
VHH: B2 VHH with A14T, H31N, S59N, T61L, V79M, N85S, T91A, G92A, N105D
B6: F09 (VHH, not shown: small tags and cut ends)
VHH: B2 VHH with H31N, Y60C
B7: E11 (VHH, not shown: small tags and cut ends)
VHH: B2 VHH with H31N, Y32F, A40P
B8: F12 (VHH, not shown: small tags and cut ends)
VHH: QVQLVESGGGLVEAGGSLRLSCAVSGSALSDYNIGWFRQAPGKEREFVARKTWDGSSTKYDDSVKGRFTVSIDNAKNTAYLQMNSLKTEDTAVYYCAAGRYSRVRGWEYDYWGQRTQVTVSS

target: T1, human ALPI on CHO cells; test: flow cytometry, CHO cells stably expressing human ALPI; PDC detected with FITC anti-human Ab
Procedure: (§1) Biparatopic VHH-hFc drug conjugates were assessed for human ALPP, ALPPL2, ALPI and ALPL cell-surface binding by flow cytometry. Binders were screened on CHO cells stably expressing human ALPP, ALPPL2, ALPI or ALPL.
(§2) Cell surface binding of test agents to hALPP isoforms was characterized in four CHO-ALPP isoform transfectant cell lines (CHO-ALPP, CHO-ALPPL2, CHO-ALPI and CHO-ALPL) and the resulting KDapp values determined. Adherent cells were detached from tissue culture flasks by incubating with 0.1% EDTA/PBS solution at 37° C. for […] or until cells detached easily. Cells were re-suspended in ice-cold PBS/2% FCS in 15 ml tubes and centrifuged at 1700 rpm for 5 mins at 4° C. Supernatant was removed and the cell pellet re-suspended in PBS/2% FCS. […] Cells were incubated with 100 μl of test agents at a range of concentrations, plus controls for 1 hr on ice. The sample plate was centrifuged at 1700 rpm for 5 mins at 4° C. The supernatant was removed, and a wash performed by re-suspending the cell pellets in 0.25 mL of ice-cold PBS/2% FCS using a multichannel pipette. Samples were again centrifuged at 1700 rpm for 5 min at 4° C. Supernatant was removed and two further washes performed as described. After the final wash and centrifugation step, excess liquid was removed by blotting the plate on tissue paper. Binding of VHH-hFc agents was determined by adding 100 μl of Fitc-anti-human Ab (ThermoFisher) and incubating for 30 mins on ice in the dark. Wash steps were performed as described previously. All cell pellets were finally re-suspended in 0.28 ml of ice-cold PBS/2% FCS and left on ice in the dark prior to analysis on a Merck-Millipore Guava EasyCyte HT or Thermo Fisher Attune N×T flow cytometer.

Binder | binding result
B1 | no binding (tested: 350 nM)

target: T2, human ALPL on CHO cells; test: flow cytometry, CHO cells stably expressing human ALPL; PDC detected with FITC anti-human Ab
Procedure: as §1, §2

Binder | binding result
B1 | no binding (tested: 350 nM)

Target: T3, Human ALPL (leucine zipper)
Test: BLI, antigen immobilised
Procedure: (§3) Binding kinetics were determined using the Biolayer Interferometry (BLI) Octet K2 system (Sartorius). […] All assays were conducted in PBS with a plate temperature of 25° C. Ka (M⁻¹s⁻¹), Kd (s⁻¹) and KD (nM) values were determined using Octet Data Analysis High Throughput software (ForteBio) for Biolayer Interferometry.

Binder | binding result
B2 | no binding
B3 | no binding
B4 | no binding
B5 | no binding
B6 | no binding
B7 | no binding
B8 | no binding

Target: T4, Human ALPP (leucine zipper)
Test: BLI, antigen immobilised
Procedure: as §3

Binder | Kd | koff | kon
B2 | < 10 pM | < 1e-07 s⁻¹ | 237000 M⁻¹ s⁻¹
B3 | < 10 pM | < 1e-07 s⁻¹ | 58600 M⁻¹ s⁻¹
B5 | 190 pM | 8.5e-06 s⁻¹ | 45900 M⁻¹ s⁻¹
B6 | < 10 pM | < 1e-07 s⁻¹ | 40600 M⁻¹ s⁻¹
B7 |  |  | 149000 M⁻¹ s⁻¹
B8 | < 10 pM | < 1e-07 s⁻¹ | 38600 M⁻¹ s⁻¹

target: T5, ALPI His homodimer; test: ELISA, antigen coated
Excerpt: (§4) ELISA was used to test the binding and specificity of the VHHs. […] Anti-Llama—HRP antibody was used for detection.

Binder | binding result
B2 | no binding (tested: 500 ng VHH)
B3 | no binding (tested: 500 ng VHH)
B4 | no binding (tested: 500 ng VHH)
B5 | no binding (tested: 500 ng VHH)
B6 | no binding (tested: 500 ng VHH)
B7 | no binding (tested: 500 ng VHH)
B8 | no binding (tested: 500 ng VHH)

target: T6, ALPP CysHis (human, UniProt P05187 23-502); test: ELISA, antigen coated
T6 construct: Whole entry: engineered human ALPP with an introduced cysteine and a His tag; homodimer; also called engineered ALPP homodimer; hALPP (ELISA)
Excerpt: as §4

Binder | binding result
B2 | binds
B3 | binds
B4 | binds
B5 | binds
B6 | binds
B7 | binds
B8 | binds
